What all share (format): biochemical
The nature of data set [1]: In vitro kinetics (Km, Vmax), donor substrate CMP-Neu5Ac. Conditions: 30° C., pH7.5, protein extract. The procedure:
(§1) To rank the best performing sialyltransferases, their Km values for donor and acceptor substrates were determined in vitro. Escherichia coli BL21(DE3) strain #287 was used for overproduction of the enzymes. Cells were incubated in 100 ml 2YT medium in shaking flasks supplemented with 100 μg m^−1 ampicillin at 30° C. until an OD600 of 0.3 was reached. Then, 0.3 mM IPTG was added and the incubation was continued for 12 to 16 hours. Cells were harvested by centrifugation and mechanically disrupted in a defined volume of 50 mM Tris-HCl pH7.5 using glass beads. The protein extract was kept on ice until the assay started. The in vitro assay was carried out in a total volume of 50 μl including 50 mM Tris-HCl pH7.5, 5 mM MgCl2 and varying concentrations of CMP-Neu5Ac (0.05-30 mM) as well as of lactose or LNT (0.1-50 mM). The assay started with the addition of 35 to 750 μg protein extract. After 1 to 10 minutes of incubation at 30° C., the assay was inactivated at 95° C. for 5 minutes. Product formation was determined by mass spectrometry. Data were evaluated using the enzyme kinetic module of SigmaPlot v12.5 to calculate Km and Vmax.
(§2) Their kinetic parameters for CMP-Neu5Ac and LNT as well as lactose are depicted in Table 6.

A short description of data set [2]: In vitro kinetics (Km, Vmax), acceptor substrate lactose. To be noted: 30° C., pH7.5, protein extract. How it is done: as §1, §2
Data set [3] can be described thus: In vitro sialylation of LNT by protein extracts, LST-a/-b quantified by LC-MS/MS. Conditions: for Ranking in the screening for sialylation of LNT: in words. The essentials: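 E. coli BL21(DE3) crude extracts overexpressing sialyltransferases (IPTG 0.3 mM, 12–16 h at 30 °C) incubated 16 h with 5 mM LNT and 10 mM CMP-Neu5Ac in 50 mM Tris-HCl pH 7.5, 5 mM MgCl2. LST-a and LST-b measured by HILIC LC-MS/MS, MRM in ESI negative mode, against commercial standards.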

Data set [4] in a line: In vitro kinetics (Km, Vmax), acceptor substrate LNT. To be noted: 30° C., pH7.5, protein extract. The procedure: as §1, §2
Setting [5] is: 5 mM LNT, 10 mM CMP-Neu5Ac, 16 hours, LC-MS/MS, relative quantity, n.d.: not detectable.

B1: SiaT19: sialyltransferase of Photobacterium leiognathi JT-SHIZ-145, acc. BAF91416, SEQ ID NO: 30 (protein, listed as Photobacterium leiognathi)
chain: MNDNQNTVDVVVSTVNDNVIENNTYQVKPIDTPTTFDSYSWIQTCGTPILKDDEKYSLSFDFVAPELDQDEKFCFEFTGDVDGKRYVTQTNLTVVAPTLEVYVDHASLPSLQQLMKIIQQKNEYSQNERFISWGRIRLTEDNAEKLNAHIYPLAGNNTSQELVDAVIDYADSKNRLNLELNTNTGHSFRNIAPILRATSSKNNILISNINLYDDGSAEYVSLYNWKDTDNKSQKLSDSFLVLKDYLNGISSEKPNGIYSIYNWHQLYHSSYYFLRKDYLTVETKLHDLREYLGGSLKQMSWDTFSQLSKGDKELFLNIVGFDQEKLQQEYQQSELPNFVFTGTTTWAGGETKEYYAQQQVNVVNNAINETSPYYLGREHDLFFKGHPRGGIINDIILGSFNNMIDIPAKVSFEVLMMTGMLPDTVGGIASSLYFSIPAEKVSFIVFTSSDTITDREDALKSPLVQVMMTLGIVKEKDVLFWC
In the case of B1, in data set [1], the Km stood at 1100 µM and the “Vmax CMP-Neu5Ac” value came to 0.09 µmol/min. Besides, in data set [2], the Km worked out at 3000 µM and the “Vmax Lactose” value worked out at 0.09 µmol/min. The “Relative efficacy of sialyltransferases regarding in-vitro production of sialyllacto-N-tetraoses: LST-b” value in data set [3] (setting [5]) turned out to be 157. Moreover, the “Ranking in the screening for sialylation of LNT” value in data set [3] is given as “sialylate LNT most efficiently among the tested α-2,6-sialyltransferases”. In data set [4], the Km was determined as 2900 µM and the “Vmax LNT” value was 0.04 µmol/min.

B2: SiaT9: sialyltransferase of Vibrio sp. JT-FAJ-16, acc. BAF91160, SEQ ID NO: 2 (protein, listed as Vibrio sp.)
chain: MNNDNSTTTNNNAIEIYVDRATLPTIQQMTKIVSQKTSNKKLISWSRYPITDKSLLKKINAEFFKEQFELTESLKNIILSENIDNLIIHGNTLWSIDVVDIIKEVNLLGKNIPIELHFYDDGSAEYVRIYEFSKLPESEQKYKTSLSKNNIKFSIDGTDSFKNTIENIYGFSQLYPTTYHMLRADIFDTTLKINPLRELLSNNIKQMKWDYFKDFNYKQKDIFYSLTNFNPKEIQEDFNKNSNKNFIFIGSNSATATAEEQINIISEAKKENSSIITNSISDYDLFFKGHPSATFNEQIINAHDMIEINNKIPFEALIMTGILPDAVGGMGSSVFFSIPKEVKNKFVFYKSGTDIENNSLIQVMLKLNLINRDNIKLISDI
As for B2, in data set [1], the Km is 960 µM and the “Vmax CMP-Neu5Ac” value came to 0.16 µmol/min. Also, in data set [2], the Km stood at 2900 µM and the “Vmax Lactose” value turned out to be 0.18 µmol/min. Moreover, the “Relative efficacy of sialyltransferases regarding in-vitro production of sialyllacto-N-tetraoses: LST-a” value in data set [3] (setting [5]) is 8.39 × 10^3. The “Ranking in the screening for sialylation of LNT” value in data set [3] is “best performing α-2,3-sialyltransferases for LST-a production”. In data set [4], the Km was 2900 µM and the “Vmax LNT” value came to 0.15 µmol/min.

Source of the values: US12692524B2, “Sialyltransferases and their use in producing sialylated oligosaccharides” (Chr. Hansen A/S, priority 2017, dated 2026).
